B1: library; numbered along this chain (parent)
chain: MAAAAAAAAEQQSSNGPVKKSMREKAVERRSVNKEHNSNFKAGYIPIDEDRLHKTGLRGRKGNLAICVIILLFILAVINLIITLVIWAVIRIGPNGCDSMEFHESGLLRFKQVSDMGVIHPLYKSTVGGRRNENLVITGNNQPIVFQQGTTKLSVENNKTSITSDIGMQFFDPRTQNILFSTDYETHEFHLPSGVKSLNVQKASTERITSNATSDLNIKVDGRAIVRGNEGVFIMGKTIEFHMGGNMELKAENSIILNGSVMVSTTRLPSSSSGDQLGSGDWVRYKLCMCADGTLFKVQVTSQNMGCQISDNPCGNTH

Variants of: B1
Assay: SGCB cell-surface expression functional score (HA stain, bin4 vs bin1, normalised to synonymous) (log10 ratio); higher = more cell-surface SGCB (functional)
Outline: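 Using lentivirus at MOI <0.1, HA-tagged, YFP-fused human beta-sarcoglycan codon-saturation libraries were put into HEK293 cells with stable alpha-, gamma- and delta-sarcoglycan expression, in duplicate transductions. YFP-positive cells were collected by sorting 72 hours later, grown 5–7 days, stained on ice with Alexa Fluor 647 anti-HA, fixed, sorted into four 5% intensity bins and amplicon-sequenced. The functional score takes the median, across codons and transductions, of the log ratio of highest-bin to lowest-bin variant frequency. Within each section, synonymous variants were scaled to mean 0, SD 0.5.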

MAAAAAAAAEQQSSNGPVKKSMREKAVERRSVNKEHNSNFKAGYIPIDEDRLHKTGLRGRKGNLAICVIILLFILAVINLIITLVIWAVIRIGPNGCDSMEFHESGLLRFKQVSDMGVIHPLYKSTVGGRRNENLVITGNNQPIVFQQGTTKLSVENNKTSITSDIGMQFFDPRTQNILFSTDYETHEFHLPSGVKSLNVQKASTERITSNATSDLNIKVDGRAIVRGNEGVFIMGKTIEFHMGGNMELKAENSIILNGSVMVSTTRLPSSSSGDQLGSGDWVRYKLCMCADGTLFKVQVTSQNVGCQISDNPCGNTH [M305V] and MAAAAAAAAEQQSSNGPVKKSMREKAVERRSVNKEHNSNFKAGYIPIDEDRLHKTGLRGRKGNLAICVIILLFILAVINLIITLVIWAVIRIGPNGCDSMEFHESGLLRFKQVSDMGVIHPLYKSTVGGRRNENLVITGNNQPIVFQQGTTKLSVENNKTSITSDIGMQFFDPRTQNILFSTDYETHEFHLPSGVKSLNVQKASTERITSNATSDLNIKVDGRAIVRGNEGVFIMGKTIEFHMGGNMELKAENSIILNGSVMVSTTRLPSSSSGDQLGSGDWVRYKLCMCADGTLFKVQVTSQNWGCQISDNPCGNTH [M305W] are within 0.2 log units of each other in “SGCB cell-surface expression functional score (log10)” value: -0.22 for the first, -0.29 for the second.

Going from MAAAAAAAAEQQSSNGPVKKSMREKAVERRSVNKEHNSNFKAGYIPIDEDRLHKTGLRGRKGNLAICVIILLFILAVINLIITLVIWAVIRIGPNGCDSMEFHESGLLRFKQVSDMGVIHPLYKSTVGGRRNENLVITGNNQPIVFQQGTTKLSVENNKTSITSDIGMQFFDPRTQNILFSTDYETHEFHLPSGVKSLNVQKASTERITSNATSDLNIKVDGRAIVRGNEGVFIMGKTIEFHMGGNMELKAENSIILNGSVMVSTTRLPSSSSGDQLGSGDWVRYKLCMCADGTLFKVQVTSQNYGCQISDNPCGNTH [M305Y] to MAAAAAAAAEQQSSNGPVKKSMREKAVERRSVNKEHNSNFKAGYIPIDEDRLHKTGLRGRKGNLAICVIILLFILAVINLIITLVIWAVIRIGPNGCDSMEFHESGLLRFKQVSDMGVIHPLYKSTVGGRRNENLVITGNNQPIVFQQGTTKLSVENNKTSITSDIGMQFFDPRTQNILFSTDYETHEFHLPSGVKSLNVQKASTERITSNATSDLNIKVDGRAIVRGNEGVFIMGKTIEFHMGGNMELKAENSIILNGSVMVSTTRLPSSSSGDQLGSGDWVRYKLCMCADGTLFKVQVTSQNSGCQISDNPCGNTH [M305S], the “SGCB cell-surface expression functional score (log10)” value rises from -1.05 to -0.39.

Compared with MAAAAAAAAEQQSSNGPVKKSMREKAVERRSVNKEHNSNFKAGYIPIDEDRLHKTGLRGRKGNLAICVIILLFILAVINLIITLVIWAVIRIGPNGCDSMEFHESGLLRFKQVSDMGVIHPLYKSTVGGRRNENLVITGNNQPIVFQQGTTKLSVENNKTSITSDIGMQFFDPRTQNILFSTDYETHEFHLPSGVKSLNVQKASTERITSNATSDLNIKVDGRAIVRGNEGVFIMGKTIEFHMGGNMELKAENSIILNGSVMVSTTRLPSSSSGDQLGSGDWVRYKLCMCADGTLFKVQVTSQNTGCQISDNPCGNTH [M305T], MAAAAAAAAEQQSSNGPVKKSMREKAVERRSVNKEHNSNFKAGYIPIDEDRLHKTGLRGRKGNLAICVIILLFILAVINLIITLVIWAVIRIGPNGCDSMEFHESGLLRFKQVSDMGVIHPLYKSTVGGRRNENLVITGNNQPIVFQQGTTKLSVENNKTSITSDIGMQFFDPRTQNILFSTDYETHEFHLPSGVKSLNVQKASTERITSNATSDLNIKVDGRAIVRGNEGVFIMGKTIEFHMGGNMELKAENSIILNGSVMVSTTRLPSSSSGDQLGSGDWVRYKLCMCADGTLFKVQVTSQNMNCQISDNPCGNTH [G306N] is lower in “SGCB cell-surface expression functional score (log10)” value: 0.02 for the first, -0.83 for the second.

MAAAAAAAAEQQSSNGPVKKSMREKAVERRSVNKEHNSNFKAGYIPIDEDRLHKTGLRGRKGNLAICVIILLFILAVINLIITLVIWAVIRIGPNGCDSMEFHESGLLRFKQVSDMGVIHPLYKSTVGGRRNENLVITGNNQPIVFQQGTTKLSVENNKTSITSDIGMQFFDPRTQNILFSTDYETHEFHLPSGVKSLNVQKASTERITSNATSDLNIKVDGRAIVRGNEGVFIMGKTIEFHMGGNMELKAENSIILNGSVMVSTTRLPSSSSGDQLGSGDWVRYKLCMCADGTLFKVQVTSQNMECQISDNPCGNTH [G306E] and MAAAAAAAAEQQSSNGPVKKSMREKAVERRSVNKEHNSNFKAGYIPIDEDRLHKTGLRGRKGNLAICVIILLFILAVINLIITLVIWAVIRIGPNGCDSMEFHESGLLRFKQVSDMGVIHPLYKSTVGGRRNENLVITGNNQPIVFQQGTTKLSVENNKTSITSDIGMQFFDPRTQNILFSTDYETHEFHLPSGVKSLNVQKASTERITSNATSDLNIKVDGRAIVRGNEGVFIMGKTIEFHMGGNMELKAENSIILNGSVMVSTTRLPSSSSGDQLGSGDWVRYKLCMCADGTLFKVQVTSQNMLCQISDNPCGNTH [G306L] are within 0.2 log units of each other in “SGCB cell-surface expression functional score (log10)” value: -0.55 for the first, -0.44 for the second.

In the case of MAAAAAAAAEQQSSNGPVKKSMREKAVERRSVNKEHNSNFKAGYIPIDEDRLHKTGLRGRKGNLAICVIILLFILAVINLIITLVIWAVIRIGPNGCDSMEFHESGLLRFKQVSDMGVIHPLYKSTVGGRRNENLVITGNNQPIVFQQGTTKLSVENNKTSITSDIGMQFFDPRTQNILFSTDYETHEFHLPSGVKSLNVQKASTERITSNATSDLNIKVDGRAIVRGNEGVFIMGKTIEFHMGGNMELKAENSIILNGSVMVSTTRLPSSSSGDQLGSGDWVRYKLCMCADGTLFKVQVTSQNMHCQISDNPCGNTH [G306H], the “SGCB cell-surface expression functional score (log10)” value is reported as 0.17.
